The text below walks through data of patent US20240092919A1 (Ablynx, published 2024).

B1: T017000354 (VHH)
VHH: EVQLVESGGGVVQPGGSLRLSCVASGAVHKINFYGWYRQAPGKEREKVAHISIGDQTDYADSAKGRFTISRDESKNMVYLQMNSLRPEDTALYFCRAMSRIWPYDYWGQGTLVTVSS
B2: T017000381 (VHH)
VHH: EVQLVESGGGVVQPGGSLRLSCVASGAVHKINFLGWYRQAPGKEREKVAHISIGDQTDYADSAKGRFTISRDESKNMVYLQMNSLRPEDTALYFCRAMSRIYPYDYWGQGTLVTVSS
B3: T017000403 (VHH)
VHH: EVQLVESGGGVVQPGGSLRLSCVASWDVHQINFLGWYRQAPGKEREKVAHISIGDQTDYADSAKGRFTISRDESKNMVYLQMNSLRPEDTALYFCRAMSRIWPYDYWGQGTLVTVSS
B4: T017000374 (VHH)
VHH: EVQLVESGGGVVQPGGSLRLSCVASYDVHQINFYGWYRQAPGKEREKVAHISIGDQTDYADSAKGRFTISRDESKNMVYLQMNSLRPEDTALYFCRAMSKIWPYDYWGQGTLVTVSS
B5: T017000378 (VHH)
VHH: EVQLVESGGGVVQPGGSLRLSCVASWDVHKINFYGWYRQAPGKEREKVAHISIGDQTDYADSAKGRFTISRDESKNMVYLQMNSLRPEDTALYFCRAMSKIWPYDYWGQGTLVTVSS
B6: T017000371 (VHH)
VHH: EVQLVESGGGVVQPGGSLRLSCVASGYVHKINFYGWYRQAPGKEREKVAHISIGDQTDYADSAKGRFTISRDESKNMVYLQMNSLRPEDTALYFCRAMSRIWPYDYWGQGTLVTVSS
B7: T017000377 (VHH)
VHH: EVQLVESGGGVVQPGGSLRLSCVASWDVHKINFYGWYRQAPGKEREKVAHISIGDQTDYADSAKGRFTISRDESKNMVYLQMNSLRPEDTALYFCRAMSRIYPYDYWGQGTLVTVSS
B8: T017000384 (VHH)
VHH: EVQLVESGGGVVQPGGSLRLSCVASGAVHQLNFYGWYRQAPGKEREKVAHISIGDQTDYADSAKGRFTISRDESKNMVYLQMNSLRPEDTALYFCRAMSRIWPYDYWGQGTLVTVSS
B9: T017000361 (VHH)
VHH: EVQLVESGGGVVQPGGSLRLSCVASGSVHKINFLGWYRQAPGKEREKVAHISIGDQTDYADSAKGRFTISRDESKNMVYLQMNSLRPEDTALYFCRAMSRIWPYDYWGQGTLVTVSS
B10: T017000382 (VHH)
VHH: EVQLVESGGGVVQPGGSLRLSCVASGSVHKINFYGWYRQAPGKEREKVAHISIGDQTDYADSAKGRFTISRDESKNMVYLQMNSLRPEDTALYFCRAMSRIYPYDWWGQGTLVTVSS
B11: T017000370 (VHH)
VHH: EVQLVESGGGVVQPGGSLRLSCVASGAVHQINFYGWYRQAPGKEREKVAHISIGDQTDYADSAKGRFTISRDESKNMVYLQMNSLRPEDTALYFCRAMSRIWPYDYWGQGTLVTVSS
B12: T017000360 (VHH)
VHH: EVQLVESGGGVVQPGGSLRLSCVASWSVHQLNFYGWYRQAPGKEREKVAHISIGDQTDYADSAKGRFTISRDESKNMVYLQMNSLRPEDTALYFCRAMSKIYPYDWWGQGTLVTVSS
B13: T017000359 (VHH)
VHH: EVQLVESGGGVVQPGGSLRLSCVASWDVHQINFYGWYRQAPGKEREKVAHISIGDQTDYADSAKGRFTISRDESKNMVYLQMNSLRPEDTALYFCRAFSKIYPYDYWGQGTLVTVSS
B14: T017000391 (VHH)
VHH: EVQLVESGGGVVQPGGSLRLSCVASGAVHKINFYGWYRQAPGKEREKVAHISIGDQTDYADSAKGRFTISRDESKNMVYLQMNSLRPEDTALYFCRAMSRIYPYDYWGQGTLVTVSS
B15: T017000363 (VHH)
VHH: EVQLVESGGGVVQPGGSLRLSCVASGSVHKINFYGWYRQAPGKEREKVAHISIGDQTDYADSAKGRFTISRDESKNMVYLQMNSLRPEDTALYFCRAMSRIYPYDYWGQGTLVTVSS
B16: T017000362 (VHH)
VHH: EVQLVESGGGVVQPGGSLRLSCVASYDVHKINFYGWYRQAPGKEREKVAHISIGDQTDYADSAKGRFTISRDESKNMVYLQMNSLRPEDTALYFCRAMSKIWPYDYWGQGTLVTVSS
B17: T017000401 (VHH)
VHH: EVQLVESGGGVVQPGGSLRLSCVASGSVHKINFYGWYRQAPGKEREKVAHISIGDQTDYADSAKGRFTISRDESKNMVYLQMNSLRPEDTALYFCRAMSRIWPYDWWGQGTLVTVSS
B18: T017000373 (VHH)
VHH: EVQLVESGGGVVQPGGSLRLSCVASGSVHKLNFLGWYRQAPGKEREKVAHISIGDQTDYADSAKGRFTISRDESKNMVYLQMNSLRPEDTALYFCRAMSRIWPYDYWGQGTLVTVSS
B19: T017000398 (VHH)
VHH: EVQLVESGGGVVQPGGSLRLSCVASYDVHQINFYGWYRQAPGKEREKVAHISIGDQTDYADSAKGRFTISRDESKNMVYLQMNSLRPEDTALYFCRAMSRIWPYDYWGQGTLVTVSS
B20: T017000357 (VHH)
VHH: EVQLVESGGGVVQPGGSLRLSCVASGYVHQLNFYGWYRQAPGKEREKVAHISIGDQTDYADSAKGRFTISRDESKNMVYLQMNSLRPEDTALYFCRAMSRIWPYDYWGQGTLVTVSS
B21: T017000379 (VHH)
VHH: EVQLVESGGGVVQPGGSLRLSCVASWDVHQINFYGWYRQAPGKEREKVAHISIGDQTDYADSAKGRFTISRDESKNMVYLQMNSLRPEDTALYFCRAMSKIWPYDYWGQGTLVTVSS
B22: T017000368 (VHH)
VHH: EVQLVESGGGVVQPGGSLRLSCVASWDVHQINFYGWYRQAPGKEREKVAHISIGDQTDYADSAKGRFTISRDESKNMVYLQMNSLRPEDTALYFCRAMSRIYPYDYWGQGTLVTVSS
B23: T017000355 (VHH)
VHH: EVQLVESGGGVVQPGGSLRLSCVASWDVHQLNFYGWYRQAPGKEREKVAHISIGDQTDYADSAKGRFTISRDESKNMVYLQMNSLRPEDTALYFCRAMSRIWPYDYWGQGTLVTVSS
B24: T017000386 (VHH)
VHH: EVQLVESGGGVVQPGGSLRLSCVASGSVHKLNFLGWYRQAPGKEREKVAHISIGDQTDYADSAKGRFTISRDESKNMVYLQMNSLRPEDTALYFCRAFSRIWPYDWWGQGTLVTVSS
B25: T017000367 (VHH)
VHH: EVQLVESGGGVVQPGGSLRLSCVASGYVHKINFLGWYRQAPGKEREKVAHISIGDQTDYADSAKGRFTISRDESKNMVYLQMNSLRPEDTALYFCRAMSRIWPYDYWGQGTLVTVSS
B26: T017000356 (VHH)
VHH: EVQLVESGGGVVQPGGSLRLSCVASGSVHKLNFYGWYRQAPGKEREKVAHISIGDQTDYADSAKGRFTISRDESKNMVYLQMNSLRPEDTALYFCRAMSRIWPYDYWGQGTLVTVSS
B27: T017000365 (VHH)
VHH: EVQLVESGGGVVQPGGSLRLSCVASGAVHKLNFLGWYRQAPGKEREKVAHISIGDQTDYADSAKGRFTISRDESKNMVYLQMNSLRPEDTALYFCRAMSRIWPYDWWGQGTLVTVSS
B28: T017000369 (VHH)
VHH: EVQLVESGGGVVQPGGSLRLSCVASGSVHKLNFYGWYRQAPGKEREKVAHISIGDQTDYADSAKGRFTISRDESKNMVYLQMNSLRPEDTALYFCRAMSRIWPYDWWGQGTLVTVSS
B29: T017000364 (VHH)
VHH: EVQLVESGGGVVQPGGSLRLSCVASGAVHQINFLGWYRQAPGKEREKVAHISIGDQTDYADSAKGRFTISRDESKNMVYLQMNSLRPEDTALYFCRAMSRIWPYDYWGQGTLVTVSS
B30: T017000372 (VHH)
VHH: EVQLVESGGGVVQPGGSLRLSCVASGYVHKINFYGWYRQAPGKEREKVAHISIGDQTDYADSAKGRFTISRDESKNMVYLQMNSLRPEDTALYFCRAMSRIYPYDYWGQGTLVTVSS
B31: T017000397 (VHH)
VHH: EVQLVESGGGVVQPGGSLRLSCVASGSVHQLNFLGWYRQAPGKEREKVAHISIGDQTDYADSAKGRFTISRDESKNMVYLQMNSLRPEDTALYFCRAMSRIWPYDYWGQGTLVTVSS

In the assay the target is T1, Cynomolgus TCR(AEA41865/AEA41866)-zipper protein (cynomolgus monkey).
T1 construct: also called cyTCR-zipper protein; cynoTCR zipper
T1 TCR alpha: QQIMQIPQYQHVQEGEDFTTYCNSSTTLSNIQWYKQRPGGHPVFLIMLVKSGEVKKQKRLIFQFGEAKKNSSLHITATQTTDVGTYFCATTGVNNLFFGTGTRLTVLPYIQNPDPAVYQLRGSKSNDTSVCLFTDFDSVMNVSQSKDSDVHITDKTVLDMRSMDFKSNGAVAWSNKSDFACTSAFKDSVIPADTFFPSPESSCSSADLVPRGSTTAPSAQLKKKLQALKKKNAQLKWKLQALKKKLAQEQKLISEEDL
T1 TCR beta: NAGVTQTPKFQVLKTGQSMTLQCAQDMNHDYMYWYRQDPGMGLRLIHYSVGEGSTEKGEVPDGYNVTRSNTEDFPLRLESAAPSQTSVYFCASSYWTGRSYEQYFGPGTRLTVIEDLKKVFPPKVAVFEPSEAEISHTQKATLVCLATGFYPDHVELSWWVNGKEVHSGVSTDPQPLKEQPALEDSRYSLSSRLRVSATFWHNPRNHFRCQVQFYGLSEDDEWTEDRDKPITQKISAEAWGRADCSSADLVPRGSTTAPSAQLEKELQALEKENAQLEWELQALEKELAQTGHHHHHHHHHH
Description: SPR ProteOn off-rate screen.
Description: Unique ISVD clones, i.e. clones with a unique sequence, were subsequently selected and screened to determine their off-rate. To this purpose, the ISVD containing periplasmic extracts were screened on huTCR-zipper and cyTCR-zipper protein by SPR on a ProteOn XPR36 instrument. The zipper proteins were immobilized on a GLC sensor chip (between 4300 and 5100RU) via amine coupling chemistry, using EDC/sulfo-NHS for activation of the carboxyl groups on the chip surface (running buffer: HBS-EP+, pH7.4). Periplasmic extracts were injected at 1/10 dilution for 2 min (at a flow rate of 45 μL/min) and dissociation was followed for 900 s. A pulse of 100 s of 3 M MgCl2 at 45 μL/min was used for regeneration. […] Processed sensorgrams were fitted with the Langmuir model (1:1 interaction) using ProteOn Manager 3.1.0 (Version 3.1.0.6) software.
In turn, B1 came in with a koff of 0.000875 s⁻¹.

B2: the dissociation rate constant (koff) came to 0.00216 s⁻¹.

B3: the koff turned out to be 0.00152 s⁻¹.

Molecule B4 gave a koff of 0.000523 s⁻¹.

For B5, the koff came to 0.000249 s⁻¹.

Molecule B6 came in with a koff of 0.000612 s⁻¹.

The molecule B7 had a koff of 0.00214 s⁻¹.

Molecule B8 came in with a koff of 0.00383 s⁻¹.

In turn, B9 showed a koff of 0.000982 s⁻¹.

B10 gave a koff of 0.00289 s⁻¹.

Regarding B11, the koff was 0.00215 s⁻¹.

For the molecule B12, the off-rate constant (koff) came to 0.00243 s⁻¹.

In turn, B13 yielded a dissociation rate constant (koff) of 0.000401 s⁻¹.

On to B14, for which the koff turned out to be 0.00161 s⁻¹.

B15 yielded an off-rate (koff) of 0.00127 s⁻¹.

As to B16, the koff worked out at 0.000577 s⁻¹.

The molecule B17 returned a koff of 0.00183 s⁻¹.

B18: the koff stood at 0.000913 s⁻¹.

Molecule B19 yielded a koff of 0.00263 s⁻¹.

Consider B20, for which the koff was 0.00251 s⁻¹.

B21: the koff was 0.000152 s⁻¹.

B22: the koff came to 0.00129 s⁻¹.

B23 came in with a koff of 0.00145 s⁻¹.

B24 registered a koff of 0.00206 s⁻¹.

In turn, B25 showed a koff of 0.0011 s⁻¹.

Consider B26, for which the koff was determined as 0.00089 s⁻¹.

Consider B27, for which the koff was 0.00201 s⁻¹.

On to B28, for which the koff came out at 0.00155 s⁻¹.

B29 registered a koff of 0.0026 s⁻¹.

Molecule B30 displayed a koff of 0.00122 s⁻¹.

The molecule B31 displayed a koff of 0.00245 s⁻¹.
